B1: ALDH8A1 (parent)
chain: RVAKKLQSGLVWTNCWLIRELNLP
B2: DULLARD (parent)
chain: LVVFTASMEIYGSAVADKLDNSRS
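Also: lentivirally expressed fusions sorted by FACS into six bins by GFP to DsRed ratio, PSI derived from sequencing read proportions per bin multiplied by bin number.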

Variants of: B1
Test: protein stability index of a GFP-peptide fusion (GPS, HEK-293T) (PSI 1-6); higher = more stable
Details: c terminus: a fixed tail appended
Work on L17R yielded a protein stability index of 3.13.
L17K showed a protein stability index of 1.34.
L17N showed a protein stability index of 1.33.
For L17D, the protein stability index was 3.58.
For L17P, the protein stability index was 1.68.
Work on W12Q yielded a protein stability index of 1.18.
With W12K the protein stability index was 2.27.
For W12T, the protein stability index was 1.61.
W12V showed a protein stability index of 1.67.
For W12E, the protein stability index was 2.75.
Work on W12P yielded a protein stability index of 3.58.
W12H gave a protein stability index of 2.37.
In the case of W12S, the protein stability index is reported as 2.38.

Variants of: B2
Test: as above
Details: c terminus: a fixed tail appended
With V3E the protein stability index was 2.33.
V3T showed a protein stability index of 1.99.
V3W showed a protein stability index of 1.56.
V3K showed a protein stability index of 2.
With V3S the protein stability index was 1.86.
Work on V3N yielded a protein stability index of 2.75.
For V3D, the protein stability index was 3.23.
Variant V3G has a protein stability index of 2.75.
For V3Q, the protein stability index was 2.62.
With S13T the protein stability index was 2.42.
For S13R, the protein stability index was 2.84.
Variant S13Y has a protein stability index of 2.58.
S13I gave a protein stability index of 2.46.
Work on S13C yielded a protein stability index of 2.05.
Work on S13P yielded a protein stability index of 2.48.
Variant E9L has a protein stability index of 3.73.
With E9A the protein stability index was 2.72.
E9D showed a protein stability index of 2.27.
In the case of E9W, the protein stability index is reported as 2.46.
E9R showed a protein stability index of 2.71.
E9F showed a protein stability index of 2.73.
Y11P gave a protein stability index of 2.01.
Work on Y11M yielded a protein stability index of 1.56.
Work on Y11N yielded a protein stability index of 3.21.
Y11H gave a protein stability index of 1.58.
With Y11D the protein stability index was 1.38.
With D17H the protein stability index was 3.
Variant L1F has a protein stability index of 2.
In the case of L1T, the protein stability index is reported as 1.82.
Work on L1G yielded a protein stability index of 2.31.
L1A gave a protein stability index of 1.73.
Variant L1Q has a protein stability index of 2.52.
L1M showed a protein stability index of 2.29.
Work on L1N yielded a protein stability index of 2.9.
With L1K the protein stability index was 2.09.
In the case of R23T, the protein stability index is reported as 2.68.
R23D showed a protein stability index of 1.75.
Work on R23F yielded a protein stability index of 2.67.
With R23K the protein stability index was 1.71.
For R23G, the protein stability index was 1.66.
Variant R23V has a protein stability index of 2.42.
S22I gave a protein stability index of 2.37.
In the case of S22K, the protein stability index is reported as 2.58.
Work on S22P yielded a protein stability index of 2.62.
Work on S22R yielded a protein stability index of 3.98.
Variant S22T has a protein stability index of 1.89.
S22E showed a protein stability index of 4.27.
With S22Y the protein stability index was 2.24.
With A14P the protein stability index was 1.73.
For A14Q, the protein stability index was 1.99.
Variant A14E has a protein stability index of 1.04.
A14N gave a protein stability index of 2.84.
K18L gave a protein stability index of 2.77.
Variant K18Q has a protein stability index of 2.49.
K18M gave a protein stability index of 2.11.
For K18N, the protein stability index was 2.74.
Work on K18Y yielded a protein stability index of 1.55.
In the case of V15K, the protein stability index is reported as 2.26.
Work on V15C yielded a protein stability index of 1.95.
With V15G the protein stability index was 2.14.
V15S gave a protein stability index of 2.48.
Variant V15N has a protein stability index of 1.87.
Variant V15H has a protein stability index of 1.82.
Work on V15L yielded a protein stability index of 1.48.
T5N gave a protein stability index of 1.76.
T5H showed a protein stability index of 1.99.
With T5E the protein stability index was 2.
T5S showed a protein stability index of 3.15.
With T5R the protein stability index was 2.6.
T5P gave a protein stability index of 1.66.
T5Q gave a protein stability index of 2.37.
Work on T5M yielded a protein stability index of 3.54.
Work on T5F yielded a protein stability index of 2.49.
Work on M8W yielded a protein stability index of 1.05.
M8D gave a protein stability index of 2.65.
Work on M8N yielded a protein stability index of 1.65.
M8R showed a protein stability index of 1.9.
In the case of M8C, the protein stability index is reported as 1.14.
M8Y gave a protein stability index of 2.64.
With M8F the protein stability index was 3.03.
With M8T the protein stability index was 1.82.
For M8P, the protein stability index was 1.18.
M8I showed a protein stability index of 4.57.
Work on M8A yielded a protein stability index of 1.59.
M8K gave a protein stability index of 1.96.
For S24T, the protein stability index was 2.71.
Variant S24I has a protein stability index of 1.3.
In the case of S24Q, the protein stability index is reported as 2.15.
In the case of S24A, the protein stability index is reported as 2.29.
In the case of I10H, the protein stability index is reported as 1.44.
With I10N the protein stability index was 1.98.
In the case of I10P, the protein stability index is reported as 2.16.
Work on I10K yielded a protein stability index of 2.05.
Variant I10L has a protein stability index of 1.34.
Work on F4H yielded a protein stability index of 2.78.
In the case of F4D, the protein stability index is reported as 2.05.
For F4K, the protein stability index was 2.91.
F4E gave a protein stability index of 2.27.
F4C gave a protein stability index of 1.08.
In the case of F4P, the protein stability index is reported as 3.61.
F4Y showed a protein stability index of 2.93.
With S7A the protein stability index was 1.85.
With S7M the protein stability index was 2.8.
Variant S7K has a protein stability index of 2.07.
In the case of S7N, the protein stability index is reported as 2.14.
Variant S7V has a protein stability index of 2.27.
S7I showed a protein stability index of 4.7.
For S7T, the protein stability index was 2.48.
With A16R the protein stability index was 3.75.
A16N showed a protein stability index of 1.46.
A16I showed a protein stability index of 2.93.
With A16Q the protein stability index was 2.02.
In the case of A16D, the protein stability index is reported as 3.11.
For A6D, the protein stability index was 1.47.
With A6H the protein stability index was 2.33.
Variant A6R has a protein stability index of 2.08.
Variant A6K has a protein stability index of 1.41.
A6C showed a protein stability index of 2.65.
Variant A6T has a protein stability index of 2.8.
With A6G the protein stability index was 1.57.
Variant A6P has a protein stability index of 1.43.
Work on N21P yielded a protein stability index of 3.
Work on N21D yielded a protein stability index of 2.47.
Variant N21A has a protein stability index of 2.08.
N21K showed a protein stability index of 3.06.
V2Q showed a protein stability index of 1.96.
V2T showed a protein stability index of 1.72.
For V2W, the protein stability index was 3.1.
V2M gave a protein stability index of 2.25.
Variant V2G has a protein stability index of 2.52.
V2S showed a protein stability index of 2.35.
In the case of V2L, the protein stability index is reported as 1.99.
Work on V2H yielded a protein stability index of 2.16.
Variant V2I has a protein stability index of 2.18.
With D20E the protein stability index was 1.97.
Variant D20R has a protein stability index of 1.2.
With D20H the protein stability index was 1.99.
For D20P, the protein stability index was 2.48.
Work on D20L yielded a protein stability index of 2.95.
D20N gave a protein stability index of 1.6.
For G12T, the protein stability index was 2.86.
With G12V the protein stability index was 3.44.
With G12L the protein stability index was 2.98.
Variant G12F has a protein stability index of 2.79.
G12Q gave a protein stability index of 1.85.
Variant L19H has a protein stability index of 1.54.
L19P showed a protein stability index of 2.23.
With L19R the protein stability index was 1.87.
With L19E the protein stability index was 2.17.
For L19W, the protein stability index was 2.27.
For L19Y, the protein stability index was 3.37.
Variant L19N has a protein stability index of 1.23.
In the case of L19K, the protein stability index is reported as 1.66.
In the case of L19D, the protein stability index is reported as 1.73.
